Test results from publication PMC6684798, “Structural basis for the target specificity of actin histidine methyltransferase SETD3” (Nature Communications, 2019).

Target: T1, SETD3 N255A (Homo sapiens, UniProt Q86TU7, N256A)
T1 construct: GST (cleaved yes); made in house; host or cells: Escherichia coli BL21(DE3) CodonPlus
T1 sequence (Q86TU7 1-594 N256A): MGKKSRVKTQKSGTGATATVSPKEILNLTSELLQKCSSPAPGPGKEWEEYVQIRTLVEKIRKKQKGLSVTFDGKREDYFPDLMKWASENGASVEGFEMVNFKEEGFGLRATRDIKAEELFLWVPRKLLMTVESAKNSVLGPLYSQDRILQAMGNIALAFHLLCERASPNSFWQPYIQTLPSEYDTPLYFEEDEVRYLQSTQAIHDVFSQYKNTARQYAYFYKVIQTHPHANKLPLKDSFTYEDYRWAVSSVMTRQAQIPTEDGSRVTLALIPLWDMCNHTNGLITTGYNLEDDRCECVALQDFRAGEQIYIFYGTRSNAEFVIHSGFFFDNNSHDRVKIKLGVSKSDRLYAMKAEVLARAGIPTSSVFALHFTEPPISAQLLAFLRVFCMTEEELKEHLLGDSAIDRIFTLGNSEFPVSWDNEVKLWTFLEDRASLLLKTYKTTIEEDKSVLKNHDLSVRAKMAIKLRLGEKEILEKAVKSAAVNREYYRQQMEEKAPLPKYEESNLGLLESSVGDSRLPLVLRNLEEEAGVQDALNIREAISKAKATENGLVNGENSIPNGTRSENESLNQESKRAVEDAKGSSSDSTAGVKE
Assay: Steady-state kinetics of SETD3 N255A on K73(66–88) (Fig. 3c; pH 10.5, 37 °C, [N255A] = 90 nM, 40 µM SAM)
Assay type: biochemical
Settings: relative to WT SETD3, Fig. 3c
Experimental: Fig. 3 Kinetics of SETD3 on H73 and K73 peptides. a Comparison of activities of three variants (WT, N255A, and N255V) on H73(66–80) peptide. The assays were performed at room temperature (~22 °C) and pH 8.0 using [WT] = 0.18 μM, [N255A] = 0.18 μM, and [N255V] = 0.72 μM. b Comparison of SETD3 WT activities on two K73 peptides (residues 66–80 and 66–88). The assays were performed at 37 °C and pH 10.5 using [WT] = 3 and 15 μM, respectively, for the long and short peptides. c Comparison of activities of three variants (N255A, N255V, and WT) on K73(66–88) peptide. The assays were performed at 37 °C and pH 10.5 using [N255A] = 90 nM, [N255V] = 0.72 μM and [WT] = 4 μM. Data represent the mean ± SD of N number of independent determinations (N = 3 for the WT and N = 2 for the mutants) performed in duplicate. […]
Recombinant human SETD3 (pXC2003) was expressed as a GST-fusion[22] in Escherichia coli BL21(DE3) CodonPlus^TM cells (Stratagene). […]
A reaction mixture contained 20 mM Tris/HCl (pH 8.0) or 20 mM glycine/NaOH (pH 10.5), 50 mM NaCl, 0.1 mg/ml BSA, 1 mM DTT, 0.18–15 µM SETD3 (as indicated in Fig. 3), 40 µM SAM and varying concentration of peptides. […] The dependence of the velocity of product formation per enzyme on substrate concentration was analyzed according to the Michaelis–Menten equation.

## K73(66–88): K73-containing actin H73K peptide, residues 66–88 (TLKYPIEKGIVTNWDDMEKIWHH; UniProt P60709 66-88, looked up, variant H73K)
  activity of N255A on K73 peptide: significantly enhanced activity
